Reference: the supplement of paper PMC10567573

B1: TFE3 (parent)
chain: ELPNIKREISETEAKALLKERQKK
B2: FUT8 (parent)
chain: YPSYKVREKIETVKYPTYPEAEK

Variants of: B1
Assay: protein stability index of a GFP-peptide fusion (GPS, HEK-293T) (PSI 1-6); higher = more stable
Settings: c terminus: a fixed tail appended
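Note: lentivirally expressed fusions sorted by FACS into six bins by GFP to DsRed ratio, PSI derived from sequencing read proportions per bin multiplied by bin number.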

Protein stability index: each site, then its substitutions
T12: Y 4.15 | S 2.69 | D 4.56
L17: N 2.56 | W 2.7 | T 2.68 | M 2.71 | F 2.38 | R 3.27 | Y 2.48 | G 2.76 | D 2.13 | C 3.09 | P 3.56
A14: S 2.22 | T 2 | I 2.46 | W 2.69 | Q 2.39 | P 3.06 | C 2.48
K19: E 2.62 | I 2.84 | D 2.52 | F 2.65 | N 2.57 | Q 2.83 | V 2.8 | T 2.42 | C 2.07 | A 2.7 | R 2.32 | Y 3.06
E1: M 2.39 | A 3.19 | T 3.6 | P 4.81 | D 2.65 | G 4.65 | C 3.12 | Q 2.99
Q22: R 2.9 | I 2.52 | W 2.4 | E 2 | K 2.35 | P 2.34 | S 2.73 | T 2.52 | H 2.73
R7: P 4.86 | K 2.44 | S 2.49 | Q 2.4 | M 2.63 | F 2.44 | N 2.58 | Y 2.81 | V 2.46 | H 3.27 | G 2.2
K6: C 2.33 | G 2.81 | E 4.11 | H 2.49 | D 4.36 | L 2.83 | I 2.04

Variants of: B2
Assay: as above
Settings: c terminus: native

Protein stability index of substitutions, site by site:
K5: V 4.16 | R 4.32 | S 4.54 | D 4.72 | F 2.91 | N 4.81 | C 4.2 | P 4.61 | L 4.12 | Q 4.68 | M 4.45 | I 4.45 | W 2.49 | G 4.29 | E 5.15 | A 3.92 | Y 3.62 | H 4.34 | T 4.6
S3: F 3.25 | L 4.7 | M 4.08 | W 3.02 | D 4.69 | I 4.44 | G 3.92 | H 4.39 | Y 4.12 | T 4.19 | A 4.02 | V 3.66 | E 4.18 | K 4.78 | C 4.08 | N 4.3 | R 3.79 | P 3.35
P2: S 4.78 | F 3.51 | W 3.32 | V 2.75 | L 3.84 | I 2.91 | K 4.35 | G 4.05 | R 4.76 | H 3.01 | M 3.58 | Y 3.73 | E 4.52 | A 3.58 | C 3.11 | Q 2.5 | T 3.35 | D 4.48 | N 3.9
V6: G 4.18 | D 4.76 | E 4.43 | C 3.91 | F 2.83 | A 4.67
Y1: T 4.92 | A 5.42 | Q 4.96 | G 5.08 | D 5.3 | R 4.58 | I 5.15 | C 4.41 | S 4.96 | P 5.38 | W 4.46 | N 5.08 | L 5.16 | E 4.99 | F 4.75 | H 4.98 | V 4.97 | M 4.7
Y4: V 4.52 | H 4.93 | G 5.38 | E 4 | A 4.86 | D 4.57 | W 3.66 | N 4.47 | Q 4.52 | I 4.16 | M 4.88 | T 4.91 | C 4.13 | P 5.02 | S 4.59 | L 4.68 | F 4.64 | R 4.29 | K 5.03
